# Experiments:
# [1] = system: Succinyl-(4-trans-L-Hyp)ASChgQ-SI-DOX (3′)
# [2] = system: Glutaryl-(4-trans-L-Hyp)ASChgQ-SI-DOX (3′)
# [3] = system: PEG(2)-(4-trans-L-Hyp)SSChgQ-SL-DOX (3′)
# [4] = system: Succinyl-(4-trans-L-Hyp)ASChgQ-SAbu-DOX (3′)
# [5] = system: Ac-(4-trans-L-Hyp)ASChgQ-StBUAla-DOX (3′)
# [6] = system: Succinyl-(4-trans-L-Hyp)ASChgQ-SV-DOX (3′)
# [7] = system: [N-Ac-(4-trans-L-Hyp)]-Ala-Ser-Chg-Gln-Ser-Leu-Dox
# [8] = system: PEG(2)-(4-trans-L-Hyp)ASChgQ-SThi-DOX (3′)
# [9] = system: Ac-(4-trans-L-Hyp)ASChgQ-SThi-acid
# [10] = system: Malonyl-(4-trans-L-Hyp)ASChgQ-SL-DOX (3′)
# [11] = system: Ac-(4-trans-L-Hyp)ASChgQ-SLacid
# [12] = system: Glutaryl-(4-trans-L-Hyp)SSChgQ-SL-DOX (3′)
# [13] = system: Succinyl-(4-trans-L-Hyp)SSChgQ-SI-DOX (3′)
# [14] = system: PEG(4)-(4-trans-L-Hyp)-SSChgQ-SL-DOX (3′)
# [15] = system: Succinyl-(4-trans-L-Hyp)ASChgQ-SThi-DOX (3′)
# [16] = system: (4-trans-L-Hyp)-Ala-Ser-Chg-Gln-Ser-Leu-Dox
# [17] = system: Succinyl-3,4-(diOH)PASChgQ-SL-DOX (3′)
# [18] = system: [N-Glutaryl-(4-trans-L-Hyp)]-Ala-Ser-Chg-Gln-Ser-Leu-Dox
# [19] = system: Glutaryl-(4-trans-L-Hyp)SSChgQ-SI-DOX (3′)
# [20] = system: PEG(2)-(4-trans-L-Hyp)ASChgQ-SL-DOX (3′)
# [21] = system: Glutaryl-(4-trans-L-Hyp)ASChgQ-SV-DOX (3′)
substance,measurement,setting,value
free prostate specific antigen (PSA),time required for 50% cleavage of the oligopeptide,[1],50% cleavage occurred in less than 2 hours for those conjugates
same,time required for 50% cleavage of the oligopeptide,[2],50% cleavage occurred in less than 2 hours for those conjugates
same,time required for 50% cleavage of the oligopeptide,[3],50% cleavage occurred in less than 2 hours for those conjugates
same,time required for 50% cleavage of the oligopeptide,[4],50% cleavage occurred in less than 2 hours for those conjugates
same,Time to 50% Substrate Cleavage by PSA,Ac-PASChgQ-SL-acid,150 min
same,Time to 50% Substrate Cleavage by PSA,[5],25 min
same,time required for 50% cleavage of the oligopeptide,[6],50% cleavage occurred in less than 2 hours for those conjugates
same,Time to 50% Substrate Cleavage by PSA,[7],20 min
same,time required for 50% cleavage of the oligopeptide,[8],50% cleavage occurred in less than 2 hours for those conjugates
same,Time to 50% Substrate Cleavage by PSA,[9],20 min
same,time required for 50% cleavage of the oligopeptide,[10],50% cleavage occurred in less than 2 hours for those conjugates
same,Time to 50% Substrate Cleavage by PSA,[11],75 min
same,time required for 50% cleavage of the oligopeptide,[12],50% cleavage occurred in less than 2 hours for those conjugates
same,time required for 50% cleavage of the oligopeptide,[13],50% cleavage occurred in less than 2 hours for those conjugates
same,time required for 50% cleavage of the oligopeptide,[14],50% cleavage occurred in less than 2 hours for those conjugates
same,time required for 50% cleavage of the oligopeptide,[15],50% cleavage occurred in less than 2 hours for those conjugates
same,Time to 50% Substrate Cleavage by PSA,Ac-PSSChgQ-SV-acid,120 min
same,time required for 50% cleavage of the oligopeptide,[16],50% cleavage occurred in less than 2 hours for those conjugates
same,time required for 50% cleavage of the oligopeptide,[17],50% cleavage occurred in less than 2 hours for those conjugates
same,time required for 50% cleavage of the oligopeptide,[18],50% cleavage occurred in less than 2 hours for those conjugates
same,time required for 50% cleavage of the oligopeptide,[19],50% cleavage occurred in less than 2 hours for those conjugates
same,Time to 50% Substrate Cleavage by PSA,[20],20 min
same,time required for 50% cleavage of the oligopeptide,[21],50% cleavage occurred in less than 2 hours for those conjugates

# From patent US20020115596
